Experimental data reported in the supplement of paper PMC10201428.
± gives the standard deviation of the averaged measurements.

Columns and labels:
[1] = test system: VchCAST RNA-guided transposition machinery (E. coli BL21(DE3) host, lacZ target); assay: relative integration efficiency (T-LR orientation) vs wild-type transposon end (log2 (normalized fold change)); transposon end mutated: right end (5 bp flank + 75 bp right end); higher = more efficient transposition
In short: (§1)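 In E. coli BL21(DE3), a T7-driven effector plasmid was paired with a pUC57 mini-transposon donor containing 1549 left-end or 1849 right-end barcoded transposon variants. Cells grew on plates with 0.1 mM IPTG at 37°C for 18 h. Relative integration efficiency was derived from Illumina reads of genomic integration junctions against input plasmids, as a log-transformed output/input barcode fold change normalised to reference barcodes.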

[2] = test system: VchCAST RNA-guided transposition machinery (E. coli BL21(DE3) host, lacZ target); assay: relative integration efficiency (T-RL orientation) vs wild-type transposon end (log2 (normalized fold change)); transposon end mutated: right end (5 bp flank + 75 bp right end); higher = more efficient transposition
In short: as §1

ACATTTGTTGATACAACCATAAAATGATAATTCACCCATCAATTGATAATTATCACACCCCAATTTAACTATAACGCTCTGATCATAGTCAGACCAACATTGCTACGACCCGTATTCGCACCGACAC
relative integration efficiency (log2) [1]: -0.128 ± 0.16
relative integration efficiency (log2) [2]: -3.27 ± 0.064

ACATTTGTTGATACAACCATAAAATGATAATTCACCCCTAAATTGATAATTATCACACCCACATTTAACTATAACGCTCTGATCATAGTCAGACCAACATTGCTACGACCCGTATTCGCACCGACAC
relative integration efficiency (log2) [1]: -0.17 ± 0.1
relative integration efficiency (log2) [2]: -3.72 ± 0.048

ACATTTGTTGATACAACCATAAAATGATAATTCCACCCATAAATTGATAATTCTCACACCCATAAATTGATATTGACTCTGATCATAGTCAGACCAACATTGCTACGACCCGTATTCGCACCGACAC
relative integration efficiency (log2) [1]: -0.163 ± 0.16
relative integration efficiency (log2) [2]: -0.563 ± 0.1

ACATTTGTTGATACAACCATAAAATGATAATTCCACCCATACATTGATAATTATCACACCCAATTTAACTATAACGCTCTGATCATAGTCAGACCAACATTGCTACGACCCGTATTCGCACCGACAC
relative integration efficiency (log2) [1]: 0.785 ± 0.032
relative integration efficiency (log2) [2]: -2.42 ± 0.38

ACATTTGTTGATACAACCATAAAATGATAATTCCACCCCTAAATTGATAATTATCACACCCAATTTAACTATAACGCTCTGATCATAGTCAGACCAACATTGCTACGACCCGTATTCGCACCGACAC
relative integration efficiency (log2) [1]: -0.0192 ± 0.33
relative integration efficiency (log2) [2]: -3.1 ± 0.3

ACATTTGTTGATACAACCATAAAATGATAATTCCACCCCTACATTGATAATTATCACACCCAATTTAACTATAACGCTCTGATCATAGTCAGACCAACATTGCTACGACCCGTATTCGCACCGACAC
relative integration efficiency (log2) [1]: 0.35 ± 0.091
relative integration efficiency (log2) [2]: -3.18 ± 0.52

ACATTTGTTGATACAACCATAAAATGATAATTTCACCCATAAATTGATAATTTTCACACCCATAAATTGATATTGGCTCTGATCATAGTCAGACCAACATTGCTACGACCCGTATTCGCACCGACAC
relative integration efficiency (log2) [1]: -0.0323 ± 0.56
relative integration efficiency (log2) [2]: -0.335 ± 0.13

ACATTTGTTGATACAACCATAAAATGATAATTTGACCCATAAATTGATAATTATCACACCCATAAATTGATATTGCCTCTGATCATAGTCAGACCAACATTGCTACGACCCGTATTCGCACCGACAC
relative integration efficiency (log2) [1]: -0.216 ± 0.13
relative integration efficiency (log2) [2]: -0.692 ± 0.19

ACATTTGTTGATACAACCATAAAATGATAATTTGTGCCATAAATTGATAATTATCACACCCATAAATTGATATTGCCTCTGATCATAGTCAGACCAACATTGCTACGACCCGTATTCGCACCGACAC
relative integration efficiency (log2) [1]: -1.18 ± 0.14
relative integration efficiency (log2) [2]: -1.7 ± 0.25

ACATTTGTTGATACAACCATAAAATGATACACCCATAAATTGATAATTATCACACCCATAAATTGATATTGCCTCTGATCATAGTCAGACCAACATTGCTACGACCCGTATTCGCACCGACACTGAC
relative integration efficiency (log2) [1]: -2.04 ± 0.42
relative integration efficiency (log2) [2]: -4.54 ± 0.12

ACATTTGTTGATACAACCATAAAATGATACGGCACAAACGCCCGGTCGCCGGCGACACAAACGCCCGGTCGCGGTAAGAGGATCATAGTCAGACCAACATTGCTACGACCCGTATTCGCACCGACAC
relative integration efficiency (log2) [1]: 0.976 ± 0.29
relative integration efficiency (log2) [2]: -2.2 ± 0.14

ACATTTGTTGATACAACCATAAAATGATACGGCCACCCATAAATTGATAATTATCACACCCATAAATTGATATTGCCTCTGATCATAGTCAGACCAACATTGCTACGACCCGTATTCGCACCGACAC
relative integration efficiency (log2) [1]: -0.393 ± 0.37
relative integration efficiency (log2) [2]: -0.7776 ± 0.00016

ACATTTGTTGATACAACCATAAAATGATACGGCCACCCATAAATTGATACGGCTCACACCCATAAATTGATAGGTACTCTGATCATAGTCAGACCAACATTGCTACGACCCGTATTCGCACCGACAC
relative integration efficiency (log2) [1]: 0.469 ± 0.35
relative integration efficiency (log2) [2]: -1.54 ± 0.28

ACATTTGTTGATACAACCATAAAATGATACGTACACCCATAAATTGATAATTATCACACCCATAAATTGATATTGCCTCTGATCATAGTCAGACCAACATTGCTACGACCCGTATTCGCACCGACAC
relative integration efficiency (log2) [1]: -0.504 ± 0.23
relative integration efficiency (log2) [2]: -0.82 ± 0.068

ACATTTGTTGATACAACCATAAAATGATACTTACACCCATAAATTGATACTTATCACACCCATAAATTGATAGTGCCTCTGATCATAGTCAGACCAACATTGCTACGACCCGTATTCGCACCGACAC
relative integration efficiency (log2) [1]: -0.0216 ± 0.18
relative integration efficiency (log2) [2]: -0.987 ± 0.027

ACATTTGTTGATACAACCATAAAATGATATAATCACCCATAAATTGATAATTATCACACCCATAAATTGATATTGCCTCTGATCATAGTCAGACCAACATTGCTACGACCCGTATTCGCACCGACAC
relative integration efficiency (log2) [1]: -0.788 ± 0.69
relative integration efficiency (log2) [2]: -0.575 ± 0.093

ACATTTGTTGATACAACCATAAAATGATATAATCACCCATAAATTGATATAATTCACACCCATAAATTGATAAACGCTCTGATCATAGTCAGACCAACATTGCTACGACCCGTATTCGCACCGACAC
relative integration efficiency (log2) [1]: 0.045 ± 0.14
relative integration efficiency (log2) [2]: -1.01 ± 0.15

ACATTTGTTGATACAACCATAAAATGATATATACACCCATAAATTGATAATTATCACACCCATAAATTGATATTGCCTCTGATCATAGTCAGACCAACATTGCTACGACCCGTATTCGCACCGACAC
relative integration efficiency (log2) [1]: 0.0362 ± 0.23
relative integration efficiency (log2) [2]: -0.131 ± 0.097

ACATTTGTTGATACAACCATAAAATGATATTTACACCCATAAATTGATATTTATCACACCCATAAATTGATAATGCCTCTGATCATAGTCAGACCAACATTGCTACGACCCGTATTCGCACCGACAC
relative integration efficiency (log2) [1]: -0.16 ± 0.048
relative integration efficiency (log2) [2]: -0.257 ± 0.19

ACATTTGTTGATACAACCATAAAATGATCACCCATAAATTGATAATTATCACACCCATAAATTGATATTGCCTCTGATCATAGTCAGACCAACATTGCTACGACCCGTATTCGCACCGACACTGACT
relative integration efficiency (log2) [1]: -0.722 ± 0.27
relative integration efficiency (log2) [2]: -4.08 ± 0.34

ACATTTGTTGATACAACCATAAAATGATCATTACACCCATAAATTGATAATTATCACACCCCATTTAACTATAACGCTCTGATCATAGTCAGACCAACATTGCTACGACCCGTATTCGCACCGACAC
relative integration efficiency (log2) [1]: 1.74 ± 0.078
relative integration efficiency (log2) [2]: -2.04 ± 0.29

ACATTTGTTGATACAACCATAAAATGATCATTACACCCATAAATTGATAATTATCCCACCCAATTTAACTATAACGCTCTGATCATAGTCAGACCAACATTGCTACGACCCGTATTCGCACCGACAC
relative integration efficiency (log2) [1]: 2.27 ± 0.065
relative integration efficiency (log2) [2]: -1.52 ± 0.18

ACATTTGTTGATACAACCATAAAATGATCATTACACCCATAAATTGATAATTATCCCACCCCATTTAACTATAACGCTCTGATCATAGTCAGACCAACATTGCTACGACCCGTATTCGCACCGACAC
relative integration efficiency (log2) [1]: 1.87 ± 0.062
relative integration efficiency (log2) [2]: -1.84 ± 0.31

ACATTTGTTGATACAACCATAAAATGATCATTACACCCATAAATTGATCATTATCACACCCATAAATTGATCTTGCCTCTGATCATAGTCAGACCAACATTGCTACGACCCGTATTCGCACCGACAC
relative integration efficiency (log2) [1]: -0.7415 ± 0.00084
relative integration efficiency (log2) [2]: -1.214 ± 0.0037

ACATTTGTTGATACAACCATAAAATGATCATTACACCCATCAATTGATAATTATCACACCCAATTTAACTATAACGCTCTGATCATAGTCAGACCAACATTGCTACGACCCGTATTCGCACCGACAC
relative integration efficiency (log2) [1]: 0.697 ± 0.18
relative integration efficiency (log2) [2]: -2.98 ± 0.5

ACATTTGTTGATACAACCATAAAATGATCATTACACCCATCAATTGATAATTATCACACCCCATTTAACTATAACGCTCTGATCATAGTCAGACCAACATTGCTACGACCCGTATTCGCACCGACAC
relative integration efficiency (log2) [1]: 0.914 ± 0.34
relative integration efficiency (log2) [2]: -2.76 ± 0.2

ACATTTGTTGATACAACCATAAAATGATCATTACACCCATCAATTGATAATTATCCCACCCAATTTAACTATAACGCTCTGATCATAGTCAGACCAACATTGCTACGACCCGTATTCGCACCGACAC
relative integration efficiency (log2) [1]: 0.874 ± 0.13
relative integration efficiency (log2) [2]: -2.65 ± 0.42

ACATTTGTTGATACAACCATAAAATGATCATTACACCCATCAATTGATAATTATCCCACCCCATTTAACTATAACGCTCTGATCATAGTCAGACCAACATTGCTACGACCCGTATTCGCACCGACAC
relative integration efficiency (log2) [1]: 1.04 ± 0.071
relative integration efficiency (log2) [2]: -2.65 ± 0.32

ACATTTGTTGATACAACCATAAAATGATCATTACCCCCATAAATTGATAATTATCACACCCAATTTAACTATAACGCTCTGATCATAGTCAGACCAACATTGCTACGACCCGTATTCGCACCGACAC
relative integration efficiency (log2) [1]: 1.59 ± 0.045
relative integration efficiency (log2) [2]: -1.95 ± 0.25

ACATTTGTTGATACAACCATAAAATGATCATTACCCCCATAAATTGATAATTATCACACCCCATTTAACTATAACGCTCTGATCATAGTCAGACCAACATTGCTACGACCCGTATTCGCACCGACAC
relative integration efficiency (log2) [1]: 2.423 ± 0.013
relative integration efficiency (log2) [2]: -1.23 ± 0.22

ACATTTGTTGATACAACCATAAAATGATCATTACCCCCATAAATTGATAATTATCCCACCCAATTTAACTATAACGCTCTGATCATAGTCAGACCAACATTGCTACGACCCGTATTCGCACCGACAC
relative integration efficiency (log2) [1]: 1.58 ± 0.2
relative integration efficiency (log2) [2]: -2.11 ± 0.51

ACATTTGTTGATACAACCATAAAATGATCATTACCCCCATAAATTGATAATTATCCCACCCCATTTAACTATAACGCTCTGATCATAGTCAGACCAACATTGCTACGACCCGTATTCGCACCGACAC
relative integration efficiency (log2) [1]: 1.86 ± 0.02
relative integration efficiency (log2) [2]: -1.91 ± 0.36
